The values below come from US20060257397A1 (CRUCELL HOLLAND B V, published 2006).

Assay [1] concerns the target T1, CD80 (UniProt P33681 35-288, limits assumed).
T1 construct: whole, on cells; also called A431 cell line transfected with CD80
T1 sequence (looked up): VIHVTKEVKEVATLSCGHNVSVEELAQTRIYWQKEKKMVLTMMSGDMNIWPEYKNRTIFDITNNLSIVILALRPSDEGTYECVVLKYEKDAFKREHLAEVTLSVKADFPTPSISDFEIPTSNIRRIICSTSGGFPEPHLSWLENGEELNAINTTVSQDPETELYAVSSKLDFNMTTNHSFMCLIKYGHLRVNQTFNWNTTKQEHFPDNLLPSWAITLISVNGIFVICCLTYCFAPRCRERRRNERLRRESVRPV
As to the kind of experiment: flow cytometry, phage antibody on transfected A431 cells. As for the experimental part:
(§1) In total, three selection rounds were performed and after both the second and third round, phage antibodies were tested for specific binding on a variety of cell-types, i.e., cultured DCs, PBLs, tonsil and synovial fluid cell suspensions, several cell lines including K562, U266, IM9, U937, THP, CEM, Fravel, HL60, Raji, RPMI8226, HepgII, HELA, HT29 and Jurkatt, a C1R cell line transfected with the molecule CD1a, and A431 cell lines transfected with the molecules CD80, CD83, and CD86. For staining of cells, 100 μl of the phage antibodies were blocked by adding 50 μl of PBS containing 4% milk powder for 15 minutes at room temperature. Next, 5×10⁵ cells in 50 μl of PBS containing 1% BSA were added to the blocked phage antibodies and the mixture obtained was incubated on ice for one hour. After that, the obtained mixture was washed three times with 200 μl PBS containing 1% BSA. To detect cell-bound phage antibodies, the cells were incubated with 20 μl of a 1:800 dilution of sheep anti-M13 polyclonal antibody for 20 minutes on ice. Thereafter, the cells were washed with PBS containing 1% BSA and incubated with 20 μl of a 1:700 dilution of PE-conjugated donkey anti-sheep polyclonal antibody for 20 minutes on ice.
(§2) To visualize DCs the cells were washed again with PBS containing 1% BSA, stained with 10 μl 1:10 diluted FITC-conjugated anti-CD1a antibody (BD PharMingen) and suspended in 200 μl of PBS containing 1% BSA. Flow cytometric analyses were performed using a FACScan (Becton Dickinson).
(§3) The twenty scFv phage antibodies derived from the selections described above bound exclusively to the cell line transfected with CD1a (see lower right panel of FIG. 2 for binding of the representative scFv phage antibody called SC02-113 to the CD1a-transfected cell line). […]

Assay [2] addresses T2, CD83 (UniProt Q01151 20-205, limits assumed).
T2 construct: whole, on cells; also called A431 cell line transfected with CD83
T2 sequence (looked up): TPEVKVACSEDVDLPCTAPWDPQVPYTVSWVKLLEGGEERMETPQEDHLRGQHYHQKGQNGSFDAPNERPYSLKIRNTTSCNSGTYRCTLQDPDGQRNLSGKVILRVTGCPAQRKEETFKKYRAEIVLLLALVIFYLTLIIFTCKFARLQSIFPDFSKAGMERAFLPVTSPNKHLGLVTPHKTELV
The assay is described as above. How it is done: as §1, §2, §3

In assay [3] the target is T3, CD86 (UniProt P42081 24-329, limits assumed).
T3 construct: whole, on cells; also called A431 cell line transfected with CD86
T3 sequence (looked up): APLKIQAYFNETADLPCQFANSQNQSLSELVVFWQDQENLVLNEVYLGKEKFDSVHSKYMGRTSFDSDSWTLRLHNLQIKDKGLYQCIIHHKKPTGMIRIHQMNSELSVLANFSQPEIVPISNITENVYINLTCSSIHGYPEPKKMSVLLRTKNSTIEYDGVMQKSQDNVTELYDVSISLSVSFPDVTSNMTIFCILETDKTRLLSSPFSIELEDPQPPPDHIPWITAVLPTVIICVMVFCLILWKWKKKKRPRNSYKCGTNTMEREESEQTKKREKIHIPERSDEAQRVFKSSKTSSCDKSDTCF
The description is as above. As for the experimental part:
as §1, §2, §3

In assay [4] the target is T4, human CD1a (human, UniProt P06126 17-327).
T4 construct: whole, on cells; also called C1R-CD1a; CR1-CD1a
T4 sequence (P06126 17-327): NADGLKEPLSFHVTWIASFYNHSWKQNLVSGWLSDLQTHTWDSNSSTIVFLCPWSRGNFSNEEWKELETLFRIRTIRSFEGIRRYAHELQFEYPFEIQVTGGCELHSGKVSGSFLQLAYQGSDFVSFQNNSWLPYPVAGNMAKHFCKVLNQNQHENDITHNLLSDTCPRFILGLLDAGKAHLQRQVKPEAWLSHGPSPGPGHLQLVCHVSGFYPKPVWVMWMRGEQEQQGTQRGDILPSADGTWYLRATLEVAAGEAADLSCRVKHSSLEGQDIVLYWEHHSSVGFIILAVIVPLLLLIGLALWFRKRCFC
As to the kind of experiment: flow cytometry, phage antibody on C1R cells transfected with CD1a. As for the experimental part:
In total, three selection rounds were performed and after both the second and third round, phage antibodies were tested for specific binding on a variety of cell-types, i.e., cultured DCs, PBLs, tonsil and synovial fluid cell suspensions, several cell lines including K562, U266, IM9, U937, THP, CEM, Fravel, HL60, Raji, RPMI8226, HepgII, HELA, HT29 and Jurkatt, a C1R cell line transfected with the molecule CD1a, and A431 cell lines transfected with the molecules CD80, CD83, and CD86. For staining of cells, 100 μl of the phage antibodies were blocked by adding 50 μl of PBS containing 4% milk powder for 15 minutes at room temperature. Next, 5×10⁵ cells in 50 μl of PBS containing 1% BSA were added to the blocked phage antibodies and the mixture obtained was incubated on ice for one hour. After that, the obtained mixture was washed three times with 200 μl PBS containing 1% BSA. To detect cell-bound phage antibodies, the cells were incubated with 20 μl of a 1:800 dilution of sheep anti-M13 polyclonal antibody for 20 minutes on ice. Thereafter, the cells were washed with PBS containing 1% BSA and incubated with 20 μl of a 1:700 dilution of PE-conjugated donkey anti-sheep polyclonal antibody for 20 minutes on ice. […]

B1: scFv phage antibody SC02-115 (scFv)
scFv: QVQLVQSGAEAKKPGASVKVSCKASGYTFTGYYMHWVRQAPGQGLEWMGWISAYNGNTNYAQKLQGRVTMTTDTSTSTAYMELRSLRSDDTAVYYCARSQMPSYFDYWGQGTLVTVSRGGGGSGGGGSGGGGSSELTQDPAVSVALGQTVRITCQGDSLRSYYASWYQQKPGQAPVLVIYGKNNRPSGIPDRFSGSSSGNTASLTITGAQAEDEADYYCNSRDSSGNHVVFGGGTKLTVLG
Regarding B1, the binding result in assay [1] is given as “no binding”; in assay [2], “no binding”; in assay [3], “no binding”; in assay [4], “binds”.
